Test results: the DeepSol protein solubility set

Test: soluble on expression in E. coli; label from the status in PepcDB or PDB records

Row | Sequence | soluble on expression in E. coli
1 | MAHHHHHHEAVVTPWSVEGDVNYDKLIKDFGSHAIDEALLERIERVLGKKPHHFLRRGIFFSHRDLNLLLDVYESGQPFYLYTGRGPSSESMHMGHLIPFMFTKWLQDSFRVPLVIQMTDDEKFYFRNIPMEQVEAMTTENIKDIIAMGFDPELTFIFRDFDYMGCMYRTVAKIERAFTASQVRGCFGFAMEDNCGRWMFPAIQAAPSFSAAFPHIFPPSMGNVFCLIPQAIDQDPYFRLTRDIAPRLGYLKPAVIHSKFFPGLSGPKGKMSSSSGTAVLLTDTEKMVKDKINKHAFSGGGATKQEHFLLGANVEVDVPIQWLSFFLEDDEELARVKKEYMLGRIMTGEVKKLLINTITAITKTHQEKRKLVTDEDVQLFTSTRIMGPAKKAATQ | soluble
2 | ADVPAGVQLADKQTLVRNNGSEVQSLDPHKIEGVPESNVSRDLFEGLLISDVEGHPSPGVAEKWENKDFKVWTFHLRENAKWSDGTPVTAHDFVYSWQRLADPNTASPYASYLQYGHIANIDDIIAGKKPATDLGVKALDDHTFEVTLSEPVPYFYKLLVHPSVSPVPKSAVEKFGDKWTQPANIVTNGAYKLKNWVVNERIVLERNPQYWDNAKTVINQVTYLPISSEVTDVNRYRSGEIDMTYNNMPIELFQKLKKEIPNEVRVDPYLCTYYYEINNQKAPFNDVRVRTALKLALDRDIIVNKVKNQGDLPAYSYTPPYTDGAKLVEPEWFKWSQQKRNEEAKKLLAEAGFTADKPLTFDLLYNTSDLHKKLAIAVASIWKKNLGVNVNLENQEWKTFLDTRHQGTFDVARAGWCADYNEPTSFLNTMLSDSSNNTAHYKSPAFDKLIADTLKVADDTQRSELYAKAEQQLDKDSAIVPVYYYVNARLVKPWVGGYTGKDPLDNIYVKNLYIIKH | soluble
3 | MGGLDKMSVEKKLLLDVKDLKVHFNITPKSAWPWTKPVTLKAVDGVNVRLYEGETLGVVGESGCGKSTFARAIIGLVQATHGEVVWLGQDLTRMQEVKRRATRKQIQMIFQDPLASLNPRMTVGDIIAEPLQTFYPELSKQEVKDRVKEMMAKVGLLPNVINRYPHEFSGGQCQRIGIARALILKPKMIICDEPVSALDVSIQAQVVNLLKELQKELGLSLVFIAHDLSVVKHISDRVLVMYLGNAVELGVSKELFANPKHPYTKALMSAVPIPDPNIERNKTIQMLEGDLPSPMNPPSGCVFRTRCPQATAECAKTKPVIKGSDIHSVSCLYAEA | not soluble
4 | MGSDKIHHHHHHTEGWFMPFDNWLYQLQNADPVEISSSGFEIAVIDYSKDGSESGEYSPEEIKIMVDAGVVPVAYVNIGQAEDYRFYWKESWYTNTPEWLGEEDPAWPGNYFVKYWYNEWKEIVFSYLDRVIDQGFKGIYLDRIDSFEYWAQEGVISRRSAARKMINFVLEIAEYVRERKPDMLIIPQNGENILDFDDGQLASTVSGWAVENLFYLKTIPLEENETKSRLEYLIRLNRKGKFILSVDYVDDGSDSFENISRILDYYEKAKRNGCIPYAARSDLELDEMNVIEGIQPPEALKDYESRTYR | soluble
5 | MQTSLRAPTLEKVSSRPRGSRRRSRKTFTAKLTSPTFRRWSSTEKWTVASREIGSARKRFCSTRTPGAAIHSSNRSRSALRYDHIDHRALARKSPHLMPPTFIKEEIMDDELDEVKEEVVSVGEAALPTPKVELNMDHPEKDLIISISVYLGYTRTLQYHEIRLGRLMKITDRLELTGDHTLRDLKNAFSCPIDFSFSDDFSEKKPSFKDMAKNKWPSTMFFIHDTDESHVNVEFPRRLVERNFRRIACDTCKEASAHWMIVDHDNLLPNSPGYLCSSCYKEFCFDVNGNKVCQFKAVPYCDRKDIGDGRQFFTELDL | not soluble
6 | MRLKKLYLKGFKSFGRPSLIGFSDRVTAIVGPNGSGKSNIIDAIKWVFGEQSKKELRASEKFDMIFAGSENLPPAGSAYVELVFEENGEEITVARELKRTGENTYYLNGSPVRLKDIRDRFAGTGLGVDFYSIVGQGQIDRIVNASPEELRLESSKHPTSLVPRGSYQRVNESFNRFISLLFFGGEGRLNIVSEAKSILDAGFEISIRKPGRRDQKLSLLSGGEKALVGLALLFALMEIKPSPFYVLDEVDSPLDDYNAERFKRLLKENSKHTQFIVITHNKIVMEAADLLHGVTMVNGVSAIVPVEVEKILEVGSHHHHHH | soluble
7 | MGSDKIHHHHHHMVAQIQELDALHWVKTRSSLDPNQSTFLTWTGKIYAFIPGEKRKLLFKMVGVSVSRCLPTDEGNWDFTSRELTYYLNPENDEILRKWENPWTGETVPVLHVANNPVQGHFQGKFPAQVEGETTTFVFDIFPTYPNPLAEETQFAEYSPYPTYQAAELFKLTVPTADLFNAELPAVSQLRLSWDRIGQWLPWMKMGDRPGNLIYSAFGSKVNGLTELPHILQEEINTRVPLYKQAPKTFSDGEDMTSWLYFQKHFQAYLAGDIFPLPADEEV | not soluble
8 | AGLKLMGAPVKLTVSQGQPVKLNCSVEGMEEPDIQWVKDGAVVQNLDQLYIPVSEQHWIGFLSLKSVERSDAGRYWCQVEDGGETEISQPVWLTVEGVPFFTVEPKDLAVPPNAPFQLSCEAVGPPEPVTIVWWRGTTKIGGPAPSPSVLNVTGVTQSTMFSCEAHNLKGLASSRTATVHLQ | soluble
9 | MGSDKIHHHHHHMETISQEKAIEAMPLEGAERTRFWRDPRFKGMECLSATFITHEFAPHAHDTFSIGAIEAGSQISTIKGERSQTGPGDLYLINPDEIHDGHPGHEGYRYRMVYPPTDLLVEILEDVTGRSFKGTPSFSRLLLTDRELALGFHRAHRALEGKVGTLEADESMFGFLARLFERHGNAIIVPLQTRESSAVHRARDYLVENYTHDIGLEELAKLAGLSRAHLIRAFRKEFHITPHAFLTDKRVREAKALLRRGWSAADTAYHCGFADQAHFSRHFKARTGVTPGAYRSA | not soluble
10 | MSLSTARLPENAERNRFQDVLPYDDARVELVPTKENNTGYINASHIKVSVSGIEWDYIATQGPLQNTCQDFWQMVWEQGIAIIAMVTAEEEGGREKSFRYWPRLGSRHNTVTYGRFKITTRFRTDSGCYATTGLKMKHLLTGQERTVWHLQYTDWPEHGCPEDLKGFLSYLEEIQSVRRHTNSTSDPQSPNPPLLVHCSAGVGRTGVVILSEIMIACLEHNEVLDIPRVLDMLRQQRMMLVQTLCQYTFVYRVLIQFLKSSRLIEGHHHHHH | not soluble
11 | MSLIEDCLRSYRFIAIDTEFPSTLRETTQHATDEERYMDMSFSVDRAKLIQLGLTLFDINGRIGGTWEINFSDFGVDDARNEKSIEFLRRNGLDLRKIREEGIRIEGFFSEMFWMLKKTRRNITWVTFHGSYDIAYLLKGFTGEALPVTSERFSKAVARVLGSVYDLKVMAGRCEGLSSRLGLETLAHEFGLNRVGTAHHAGSNNELTAMVFAKVLSPFPLFLRFGSLELRTIESEAIV | soluble
12 | MKSQFLLSVKEHMLTRYYANKTIESYLFWIKRFIVFHQFAHPSKLSEDDVIRFLSHLAIDEKVAVKTQALALNAISFLYRDFFKTPLSLDMRFQKSLTEKKLPVVLTRDEVRRFV | not soluble
13 | MADSELQSAIGNNEECVNLFSDCDNVFVVAGISPLIDFQNNLNRIENYLCQKKIVGVKLYPGHEQFYLNDPRLESVFLLCEAFDVPVAVHTGWDNPHFNAPALFADIAGKHPKLKIVNCHLWYPKIDYCYEVTRDYQNIYYDISSLADDKGNKSKITEVLHRIANENPHRLIFGSDYGMCDPMAHIELVDRLPVSDETREMIFYKNAVGLYGLSRING | soluble
14 | MILHPRPSPIAAAMYQLRDIGVDAIILHGPSGCCFRTARLLEIDGIRVFTSAMGENDFIFGAMDKLRDVIAEVLEYLKKETPKSEKYKIGIVGTCASMIIGEDLESLIDDFDDIIIPVDIHSGLVDNTVGAIRAMDGALNAGLIDYSEYERQKKMLEHHHHHH | soluble
15 | LLTAAYAAKEHLIMTTPYFVPSDDLLHAICTAAQRGVDVSIILPRKNDSLLVGWASRAFFTELLAAGVKIYQFEGGLLHTKSVLVDGELSLVGTVNLDMRSLWLNFEITLVIDDAGFGSDLAAVQDDYISRSRLLDARLWLKRPLWQRIAERLFYFFSPLL | not soluble
16 | PSSNGPLEGTRGKLKNKPRDRGTSPPQRAVEEFDDGEKVHLKIDPSVPNGRFHPRFDGQTGTVEGKQGDAYKVDIVDGGKEKTIIVTAAHLRRQE | soluble
17 | RSDTIMVLSINPKEKKTELVSIPRDTKAEIAGRGTEEKINHAYAYGGPNMAVKTIEKLMNVPIDHYATIDMDGLHDMIDTLGGVDVVSNSTFTMGANHFVKGEKTHVDGDAAMDFIRSRKEDGAGGDFGRQERQQLILEAMADKLTS | not soluble
18 | AHDNVVIFGDSMVADPLVSEVITGRLSSQPHCPHSPTSYAEIAAKRLGLESRNFSCAGAQVHIGGPFLKTSFIAQIDTAIAAGALDTHTRRVWITQGFNDAWSGHPAAQVVATMSEVIGRIRAHAPNARIQIVGYPQITHQGQLCLVR | not soluble
19 | MERVNVVGAGLAGSEAAWTLLRLGVPVRLFEMRPKRMTPAHGTDRFAEIVCSNSLGGEGETNAKGLLQAEMRRAGSLVMEAADLARVPAGGALAVDREEFSGYITERLTGHPLLEVVREEVREIPPGITVLATGPLTSEALAEALKRRFGDHFLAYYDAASPIVLYESIDLTKCFRAGRYGQSADYLNCPMTEEEYRRFHQALLEAQRHTPHDWEKLEFFEACVPVEELARRGYQTLLFGPMKPVGLVDPRTGKEPFAVVQLRQEDKAGRMWSLVGFQTGLKWPEQKRLIQMIPGLENAEIVRYGVMHRNTYLNAPRLLGETLEFREAEGLYAAGVLAGVEGYLESAATGFLAGLNAARKALGLPPVAPPEESMLGGLVRYLATANPEGFQPMYANWGLVPPVEGRMGKKEKRQAMYRRGLEAFSAWLSGLNPPLPRPEAALV | soluble
20 | RESLGRDVMVVVDLSGSMAEQDFVSKQSSDLGAVKKISRLEATKEVLADFVKTRKGDRLGLILFGDAAFVQTPFTADQSVWLELLNQTDVAMAGQSTHLGDAIGLAIKVFEQSSEDKASAEENAKPREKVAIVLTDGNDTGSYVEPIDAAKVAAAKDVRIHMIAMGDPRTVGEQALDMNIINRVAKESGGKAFQAINRDELEQAYDEIGELEPQLYE | not soluble
21 | MSESAFKDCFSTDVSADTRLFHFLARDYIVQEGQQPSWLFYLTRGRARLYATLANGRVSLIDFFAAPCFIGEIELIDKDHEPRAVQAIEECWCLALPMKHYRPLLLNDTLFLRKLCVTLSHKNYRNIVSLTQNQSFPLVNRLAAFILLSQEGDLYHEKHTQAAEYLGVSYRHLLYVLAQFIHDGLLIKRKDI | not soluble
22 | MYLTKEEELALSGEYGPAIQKAMEILVALGDIYNADRLIPIKSAQIAGVSYKNIGDEGIEFLRDFVEAGAKVSVYTTLNPAGIGDEDFMEKQAEIIELYRKMGVEITSTCTPYYGPNLPKYGDHLAWSESSAVIFANSVLGARTNREGGPSSLAAAIVGKTPNYGLHLEENRKATHIIEVKDKLKSRTEYSLLGYKIGEIVENGVPYIRGIAPTTEDLKALGASMAASGGVGLYHVEGSTPEWRGAIVDKIEKIEIGRKDLEDVRQRFSVDWGDVDIILLGCPHASLREIKEIAELLRMRDKPLKIPLFITVSRGIKALADYLGYTEIIERYNGKLLPDVCLVVSPIKEWYSGVATDSGKAAFYLKSFGLKVLLDTTENIIMGAPLEHHHHHH | not soluble
23 | MAHHHHHHMRLLRLSTKVGMESNNAALRAHLLSLRGTEPVGDPKNPLHVQLQIHDGHRNTLLSHTKELYVTALQHHPETFVNVIPLLPLSDDESSPSNDGGASNDSITLFNAASMTADRGFTPLFSHVALGGTFDRLHAGHKLLLTTALFYASKSLRIGVTLESMLKKKTYGSYIEPFETRCKLVSEFLYSVRRDIDVTVVGITEPSGGTNRDAEIEALVVSPETAGVLASINDERASYGLKPLECIQIPYVSAEGDGRVSSTELRRRLHENASGAN | soluble
